Test results from WO2005092925A2.

Columns and labels:
Test in all cases: AlphaScreen
human FcγRI (human) = human FcγRI (human) (UniProt P12314)
[1] = target: human V158 FcγRIIIa, extracellular region fused with GST (human) (UniProt P08637)
human FcγRIIb (human) = human FcγRIIb (human) (UniProt P31994)
human FcRn (human) = human FcRn (human) (UniProt P55899)
[2] = target: human FcγRIIa H131 (human) (UniProt P12318)
human FcγRIIc (human) = human FcγRIIc (human) (UniProt P31995)
UniProt P31995, sequence (P31995 43-217 limits assumed): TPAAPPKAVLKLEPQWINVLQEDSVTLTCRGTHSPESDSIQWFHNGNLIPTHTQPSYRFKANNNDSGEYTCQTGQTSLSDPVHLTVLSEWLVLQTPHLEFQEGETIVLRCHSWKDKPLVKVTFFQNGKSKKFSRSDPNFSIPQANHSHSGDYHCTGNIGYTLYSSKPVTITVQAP

UniProt P08637, sequence (P08637 17-208 F176V): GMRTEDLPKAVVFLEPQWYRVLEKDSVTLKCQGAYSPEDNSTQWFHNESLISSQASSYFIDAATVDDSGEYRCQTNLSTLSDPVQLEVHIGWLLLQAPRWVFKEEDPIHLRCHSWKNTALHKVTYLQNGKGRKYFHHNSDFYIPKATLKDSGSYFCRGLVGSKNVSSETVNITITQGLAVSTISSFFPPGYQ
UniProt P31994, sequence (P31994 43-217 limits assumed): as the sequence (P31995 43-217 limits assumed) above
UniProt P12314, sequence (P12314 16-288 limits assumed): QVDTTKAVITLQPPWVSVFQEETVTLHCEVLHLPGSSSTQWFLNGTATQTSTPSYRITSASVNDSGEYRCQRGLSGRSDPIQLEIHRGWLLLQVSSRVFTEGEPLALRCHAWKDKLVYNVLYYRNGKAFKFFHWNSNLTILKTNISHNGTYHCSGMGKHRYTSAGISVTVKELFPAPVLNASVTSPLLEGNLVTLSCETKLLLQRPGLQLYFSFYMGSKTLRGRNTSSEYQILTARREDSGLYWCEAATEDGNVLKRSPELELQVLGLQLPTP
UniProt P12318, sequence (P12318 36-218 limits assumed): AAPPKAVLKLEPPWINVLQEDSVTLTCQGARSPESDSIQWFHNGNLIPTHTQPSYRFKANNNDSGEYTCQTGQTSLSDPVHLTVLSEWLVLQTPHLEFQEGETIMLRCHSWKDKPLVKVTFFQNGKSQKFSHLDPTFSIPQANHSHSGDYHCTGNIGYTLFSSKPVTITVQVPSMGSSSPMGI
UniProt P55899, sequence (P55899 24-297 limits assumed): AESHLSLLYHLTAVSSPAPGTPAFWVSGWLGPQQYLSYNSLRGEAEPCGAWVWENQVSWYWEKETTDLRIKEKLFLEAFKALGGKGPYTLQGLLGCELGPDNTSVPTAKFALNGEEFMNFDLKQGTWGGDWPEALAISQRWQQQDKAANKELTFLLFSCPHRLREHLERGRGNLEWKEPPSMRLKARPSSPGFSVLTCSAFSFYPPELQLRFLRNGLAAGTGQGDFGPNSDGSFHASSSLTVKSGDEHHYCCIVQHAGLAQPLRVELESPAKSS

Substance	Fold WT (human FcγRI (human)) [fold]	Fold WT [1] [fold]	Fold WT (human FcγRIIb (human)) [fold]	Fold WT (human FcRn (human)) [fold]	Fold WT [2] [fold]	Fold WT (human FcγRIIc (human)) [fold]
Campath E233S (antibody)	0.17	0.36	0.31	1.1	0.62	0.37
Campath L235W (antibody)	0.11	0.32	0.77	0.46	0.9	0.5
Campath L234K (antibody)	0.43	0.53	1.42	0.62	0.65	1.09
Campath E233M (antibody)	0.29	0.7	0.49	1.13	0.67	0.85
Campath E233T (antibody)	0.15	0.42	0.78	1.19	1.28	0.83
Campath L235K (antibody)	0.42	0.63	1.28	0.96	0.56	1.34
Campath E233H (antibody)	0.17	0.32	0.58	0.99	0.74	0.78
Campath G236T (antibody)			0.95	1.56	1.89	0.48
Campath E233R (antibody)	0.14	0.35	0.36	1.05	0.75	0.6
Campath L235P (antibody)	0.13	0.78	1.16	0.86	1.16	0.89
Campath K222Y (antibody)	0.77	0.34	0.5	0.66	0.48	0.34
Campath D221K (antibody)	4.53	65.6	3.5	5.66	4.32	17.8
Campath E233F (antibody)	0.23	0.58	0.73	0.9	0.64	0.84
Campath E233V (antibody)	0.25	0.5	0.37	0.91	0.71	0.61
Campath P228G (antibody)	1	0.98	0.96	1.77	2.6	0.54
Campath G236P (antibody)	0.15	0.1	0.24	1.41	0.11	0.15

Substance	Fold WT (human FcγRI (human)) [fold]	Fold WT [1] [fold]	Fold WT (human FcγRIIb (human)) [fold]	Fold WT (human FcRn (human)) [fold]	Fold WT [2] [fold]	Fold WT (human FcγRIIc (human)) [fold]
Campath G236W (antibody)	0.78	0.29	0.7	1.52	2.13	0.29
Campath G236A (antibody)	0.48	0.65	1.05	1.75	45	1.45
Campath L234M (antibody)	0.64	0.49	0.9	0.55	0.89	0.65
Campath G236S (antibody)	0.55	5.77	2.77	1.77	22.7	3.68
Campath E233W (antibody)	0.28	0.35	0.82	1.64	0.86	0.7
Campath P232Y (antibody)	1.91	0.99	1.49	0.68	1.51	0.96
Campath P232K (antibody)	0.7	0.77	0.85	1.56	0.87	0.61
Campath E233N (antibody)	0.16	0.48	0.34	0.74	0.5	0.46
Campath L235R (antibody)	0.35	0.62	1.93	0.53	0.71	1.15
Campath G236D (antibody)	0.15		3.77	1.53	5.01	4.74
Campath G236M (antibody)		0.19	0.79	1.6	0.34	0.4
Campath E233I (antibody)	0.3	0.88	1.69	0.95	1.09	1.8
Campath G236V (antibody)	0.14	0.27	0.82	1.35	1.52	0.47
Campath L234R (antibody)	0.38	0.73	1.49	1.19	0.87	1.52
Campath P230G (antibody)	1.04	0.48	1.13	1.16	0.99	0.75
Campath K222E (antibody)	1.77	1.51	1.04	0.64	1.26	1.22

Second part, the substance after the results:

Fold WT (human FcγRI (human)) [fold]	Fold WT [1] [fold]	Fold WT (human FcγRIIb (human)) [fold]	Fold WT (human FcRn (human)) [fold]	Fold WT [2] [fold]	Fold WT (human FcγRIIc (human)) [fold]	Substance
2.97	1.51	1.59	0.76	0.8	0.99	Campath P232E (antibody)
0.44	0.56	0.85	0.65	0.4	1.22	Campath P230Y (antibody)
0.34	0.41	0.84	0.97	0.62	0.78	Campath L235A (antibody)
0.7	2.17	3.62	2.54	3.26	3.48	Campath L234G (antibody)
0.19	0.51	0.27	0.61	0.52	0.39	Campath E233Q (antibody)
0.1	0.46	0.6	0.93	1.23	0.71	Campath E233A (antibody)
0.34	1.06	0.83	0.78	0.63	0.8	Campath L235E (antibody)
0.36	1.21	0.94	2.09	1.21	0.74	Campath E233G (antibody)
0.44	0.35	0.85	0.58	0.8	0.62	Campath L234A (antibody)
0.5	0.58	0.41	0.52	0.62	0.58	Campath A231K (antibody)
0.38	0.46	0.89	0.69	0.79	0.64	Campath L235M (antibody)
0.53	0.52	0.26	0.6	0.55	0.54	Campath E233L (antibody)
1.91	1.28	1.14	1.55	1.31	1.13	Campath P228K (antibody)
1.15	0.75	1.59	1.45	1.68	1.61	Campath P228Y (antibody)
2.07		2.34	1.01	1.25	1.47	Campath P230E (antibody)
